From PMC4540782, “Latent and active aurone synthase from petals of C. grandiflora: a polyphenol oxidase with unique characteristics” (Planta, 2015)

Assays:
[1] = molecular target: T1, latent recombinant cgAUS1 (pro-cgAUS1) (Coreopsis grandiflora, UniProt A0A075DN54); assay: spectrophotometric pH profile; type: biochemical; details: 25 µM butein, 125 mM sodium citrate, pH 3.5 to 7.4; no allosteric activation
T1 construct: heterologously expressed latent pro-enzyme with C-terminal shielding domain
T1 sequence (A0A075DN54 86-602): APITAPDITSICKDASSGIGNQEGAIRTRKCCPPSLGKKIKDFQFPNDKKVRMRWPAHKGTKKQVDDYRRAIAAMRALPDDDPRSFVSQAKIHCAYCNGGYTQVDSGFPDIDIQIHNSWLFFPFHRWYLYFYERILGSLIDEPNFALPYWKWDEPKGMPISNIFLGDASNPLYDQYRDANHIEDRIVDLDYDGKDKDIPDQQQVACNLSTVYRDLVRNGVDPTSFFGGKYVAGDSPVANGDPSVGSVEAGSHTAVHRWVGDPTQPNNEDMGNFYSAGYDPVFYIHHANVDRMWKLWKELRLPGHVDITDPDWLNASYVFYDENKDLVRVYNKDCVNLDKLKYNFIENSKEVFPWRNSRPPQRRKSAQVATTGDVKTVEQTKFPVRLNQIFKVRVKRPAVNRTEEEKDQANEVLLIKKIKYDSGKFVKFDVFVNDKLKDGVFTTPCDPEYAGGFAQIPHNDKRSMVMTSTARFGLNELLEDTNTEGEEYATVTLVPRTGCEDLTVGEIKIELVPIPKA

CC(C)(C)c1ccc(O)c(O)c1 = tested on: T2, CC(C)(C)c1ccc(O)c(O)c1; assay: purified protein; type: biochemical, Coreopsis grandiflora; details: pH 5.5, suicide substrate
T2 construct: main core API-IENSKE plus disulfide-linked C-terminal peptide D438-G452; partly phosphorylated or sulfated at Tyr230

Cc1ccc(O)c(O)c1 = tested on: T3, Cc1ccc(O)c(O)c1; assay: purified protein; type: biochemical, Coreopsis grandiflora; details: pH 5.5, suicide substrate
T3 construct: main core API-IENSKE plus disulfide-linked C-terminal peptide D438-G452; partly phosphorylated or sulfated at Tyr230

[2] = tested on: T4, O=C(/C=C/c1ccc(O)c(O)c1)c1ccc(O)cc1O; assay: purified protein; type: biochemical, Coreopsis grandiflora; details: pH 5.5, diphenolase, butein to sulfuretin
T4 construct: main core API-IENSKE plus disulfide-linked C-terminal peptide D438-G452; partly phosphorylated or sulfated at Tyr230

Oc1ccccc1O = tested on: T5, Oc1ccccc1O; assay: purified protein; type: biochemical, Coreopsis grandiflora; details: pH 5.5
T5 construct: main core API-IENSKE plus disulfide-linked C-terminal peptide D438-G452; partly phosphorylated or sulfated at Tyr230

Compound	spectrophotometric pH profile [1]	Km (CC(C)(C)c1ccc(O)c(O)c1) [µM]	Vmax (CC(C)(C)c1ccc(O)c(O)c1) [µmol/min/mg]	kcat (CC(C)(C)c1ccc(O)c(O)c1) [s⁻¹]	Km (Cc1ccc(O)c(O)c1) [µM]	Vmax (Cc1ccc(O)c(O)c1) [µmol/min/mg]	kcat (Cc1ccc(O)c(O)c1) [s⁻¹]	kcat/Km (Cc1ccc(O)c(O)c1) [M⁻¹ s⁻¹]	Km [2] [µM]	Vmax [2] [µmol/min/mg]	kcat [2] [s⁻¹]	kcat/Km [2] [M⁻¹ s⁻¹]	Km (Oc1ccccc1O) [µM]	kcat (Oc1ccccc1O) [s⁻¹]	kcat/Km (Oc1ccccc1O) [M⁻¹ s⁻¹]
O=C(/C=C/c1ccc(O)c(O)c1)c1ccc(O)cc1O [Butein]	pH optimum of recombinant pro-cgAUS1 (filled triangle, dashed lines) and active cgAUS1														
active cgAUS1 (aurone synthase), sample 1 (Coreopsis grandiflora; DEL436-522)		504 ± 20	2260 ± 23	1560 ± 16	3110 ± 120	2300 ± 39	1590 ± 27	512000 ± 22000	52 ± 3	489	464 ± 16	8.93e+06 ± 649000	4040 ± 690	869 ± 41	215000 ± 38000
